Source: FireProtDB (doi:10.1093/protein/gzi051)

B1: Alpha-lactalbumin, P00711 (parent)
chain: MMSFVSLLLVGILFHATQAEQLTKCEVFRELKDLKGYGGVSLPEWVCTTFHTSGYDTQAIVQNNDSTEYGLFQINNKIWCKDDQNPHSSNICNISCDKFLDDDLTDDIMCVKKILDKVGINYWLAHKALCSEKLDQWLCEKL

Variants of: B1
Details: Bos taurus, pH 7.7, Thermal, Fluorescence, HEPES-KOH 10 mM, structure 1HFZ, whole UniProt chain shown

Question: For MMSFVSLLLVGILFHATQAEQLTKCEVFRELKDLKGYGGVSLPAWVCTTFHTSGYDTQAIVQNNDSTEYGLFQINNKIWCKDDQNPHSSNICNISCDKFLDDDLTDDIMCVKKILDKVGINYWLAHKALCSEKLDQWLCEKL [E44A], which Tm (CaCl2 1 mM) is on record?
Answer: 60.9 °C

Question: What about the “change of melting temperature, mutant - wild type (higher = more stable)” value (from here on “change of melting temperature, mutant”) (CaCl2 1 mM) of the same variant?
Answer: 1.1 °C

Question: What about the Tm of the same variant?
Answer: 19.5 °C

Question: With MMSFVSLLLVGILFHATQAEQLTKCEVFRLLKDLKGYGGVSLPEWVCTTFHTSGYDTQAIVQNNDSTEYGLFQINNKIWCKDDQNPHSSNICNISCDKFLDDDLTDDIMCVKKILDKVGINYWLAHKALCSEKLDQWLCEKL [E30L] as the variant, how does the Tm read?
Answer: 27.5 °C

Question: With MMSFVSLLLVGILFHATQAEQLTKCQVFRELKDLKGYGGVSLPEWVCTTFHTSGYDTQAIVQNNDSTEYGLFQINNKIWCKDDQNPHSSNICNISCDKFLDDDLTDDIMCVKKILDKVGINYWLAHKALCSEKLDQWLCEKL [E26Q] as the variant, how does the Tm (CaCl2 1 mM) read?
Answer: 67.7 °C

Question: And the “change of melting temperature, mutant” value (CaCl2 1 mM)?
Answer: 7.9 °C

Question: And the Tm?
Answer: 27 °C

Question: With MMSFVSLLLVGILFHATQAMQLTKCEVFRELKDLKGYGGVSLPEWVCTTFHTSGYDTQAIVQNNDSTEYGLFQINNKIWCKDDQNPHSSNICNISCDKFLDDDLTDDIMCVKKILDKVGINYWLAHKALCSEKLDQWLCEKL [E20M] as the variant, how does the Tm (CaCl2 1 mM) read?
Answer: 69.8 °C

Question: And the “change of melting temperature, mutant” value (CaCl2 1 mM)?
Answer: 10 °C

Question: What about the Tm of the same variant?
Answer: 36.8 °C

Question: Which Tm does the source give for MMSFVSLLLVGILFHATQAQQLTKCEVFRELKDLKGYGGVSLPEWVCTTFHTSGYDTQAIVQNNDSTEYGLFQINNKIWCKDDQNPHSSNICNISCDKFLDDDLTDDIMCVKKILDKVGINYWLAHKALCSEKLDQWLCEKL [E20Q] here?
Answer: 23.5 °C

Question: With MMSFVSLLLVGILFHATQAEQLTKCEVFRELKDLKGYGGVSLPEWVCTTFHTSGYNTQAIVQNNDSTEYGLFQINNKIWCKDDQNPHSSNICNISCDKFLDDDLTDDIMCVKKILDKVGINYWLAHKALCSEKLDQWLCEKL [D56N] as the variant, how does the Tm (CaCl2 1 mM) read?
Answer: 74.2 °C

Question: What about the “change of melting temperature, mutant” value (CaCl2 1 mM) of the same variant?
Answer: 14.4 °C

Question: And the Tm?
Answer: 31.7 °C
